Patent publication US20250296971A1, “GASTRIC INHIBITORY PEPTIDE RECEPTOR LIGANDS” (priority 2021, published 2025)
*1 amine or outer side, *2 acyl side, *3 side chain or, on linkers, in order; H or OH if unused. Bridges are numbered along the chain shown (N, C = ends). Primed or numbered codes have the meaning given here. [ ]: non-standard residue; d: D form. The star is where a group is joined. 3‑methylbenzoyl = 3-methylbenzoyl group bridging Dap and AET, O=C(c1cccc(C[*:3])c1)[*:2]; Ttds = 1,13-diamino-4,7,10-trioxatridecan-succinamic acid, NCCCOCCOCCOCCCNC(=O)CCC(=O)*; dE(AGLU) = D-glutamic acid bearing 1-amino-1-deoxy-D-glucitol; Pro(trans-4-NH2) = O=C([C@@H]1C[C@@H](N[*:3])CN1[*:1])[*:2]; DO3AM = NC(=O)CN1CCN(CC(N)=O)CCN(CC(=O)*)CCN(CC(N)=O)CC1; DOTA = O=C(O)CN1CCN(CC(=O)O)CCN(CC(=O)*)CCN(CC(=O)O)CC1; Trp(5-Cl) = N[C@@H](Cc1c[nH]c2ccc(Cl)cc12)C(=O)O; Pyridine(2,6-diCH2) = c1cc(C[*:1])nc(C[*:2])c1; Trp(7-F) = N[C@@H](Cc1c[nH]c2c(F)cccc12)C(=O)O; 2Lut″ = 2,6-lutidylidene linking two thiols; APAc = 4-amino-1-carboxymethylpiperidine; Glutaryl = O=C(CCCC(=O)[*:2])[*:1]; AGLU = 1-amino-1-deoxy-D-glucitol; mli = maleimide bridging scaffold; Hyp = O=C(O)[C@@H]1C[C@@H](O)CN1; Cysteamide = C(CS[*:3])N[*:1]; Tle = CC(C)(C)[C@H](N)C(=O)O; hCys = N[C@@H](CCS)C(=O)O; Api = NC1(C(=O)O)CCNCC1; Thp = NC1(C(=O)O)CCOCC1; Dap = NC[C@H](N)C(=O)O; Aib = CC(C)(N)C(=O)O

B1: Ac-Asp-Trp-5Clw-Hyp-Glu-leu-[Cys(2Lut)-Thp-Glu-Ile-Cys]-NH2 (peptide)
peptide: Ac-DW[Trp(5-Cl)][Hyp]E[dL]C[Thp]EIC-NH2
modifications: linker 7-11 via Pyridine(2,6-diCH2)
SMILES: CC[C@H](C)[C@@H]1NC(=O)[C@H](CCC(=O)O)NC(=O)C2(CCOCC2)NC(=O)[C@@H](NC(=O)[C@@H](CC(C)C)NC(=O)[C@H](CCC(=O)O)NC(=O)[C@@H]2C[C@@H](O)CN2C(=O)[C@H](Cc2c[nH]c3ccc(Cl)cc23)NC(=O)[C@H](Cc2c[nH]c3ccccc23)NC(=O)[C@H](CC(=O)O)NC(C)=O)CSCc2cccc(n2)CSC[C@@H](C(N)=O)NC1=O
B2: Ac-Asp-Trp-5Clw-Hyp-Glu-leu-[Cys(2Lut)-Thp-Phe-Ile-Cys]-NH2 (peptide)
peptide: Ac-DW[Trp(5-Cl)][Hyp]E[dL]C[Thp]FIC-NH2
modifications: linker 7-11 via Pyridine(2,6-diCH2)
SMILES: CC[C@H](C)[C@@H]1NC(=O)[C@H](Cc2ccccc2)NC(=O)C2(CCOCC2)NC(=O)[C@@H](NC(=O)[C@@H](CC(C)C)NC(=O)[C@H](CCC(=O)O)NC(=O)[C@@H]2C[C@@H](O)CN2C(=O)[C@H](Cc2c[nH]c3ccc(Cl)cc23)NC(=O)[C@H](Cc2c[nH]c3ccccc23)NC(=O)[C@H](CC(=O)O)NC(C)=O)CSCc2cccc(n2)CSC[C@@H](C(N)=O)NC1=O
B3: Ac-Asp-Trp-5Clw-Hyp-Glu-leu-[Cys(2Lut)-Thp-Leu-Tle-Cys]-NH2 (peptide)
peptide: Ac-DW[Trp(5-Cl)][Hyp]E[dL]C[Thp]L[Tle]C-NH2
modifications: linker 7-11 via Pyridine(2,6-diCH2)
SMILES: CC(=O)N[C@@H](CC(=O)O)C(=O)N[C@@H](Cc1c[nH]c2ccccc12)C(=O)N[C@@H](Cc1c[nH]c2ccc(Cl)cc12)C(=O)N1C[C@H](O)C[C@H]1C(=O)N[C@@H](CCC(=O)O)C(=O)N[C@H](CC(C)C)C(=O)N[C@H]1CSCc2cccc(n2)CSC[C@@H](C(N)=O)NC(=O)[C@H](C(C)(C)C)NC(=O)[C@H](CC(C)C)NC(=O)C2(CCOCC2)NC1=O
B4: Ac-Asp-Trp-5Clw-Hyp-Glu-leu-[Cys(2Lut)-Thp-Leu-Leu-Cys]-NH2 (peptide)
peptide: Ac-DW[Trp(5-Cl)][Hyp]E[dL]C[Thp]LLC-NH2
modifications: linker 7-11 via Pyridine(2,6-diCH2)
SMILES: CC(=O)N[C@@H](CC(=O)O)C(=O)N[C@@H](Cc1c[nH]c2ccccc12)C(=O)N[C@@H](Cc1c[nH]c2ccc(Cl)cc12)C(=O)N1C[C@H](O)C[C@H]1C(=O)N[C@@H](CCC(=O)O)C(=O)N[C@H](CC(C)C)C(=O)N[C@H]1CSCc2cccc(n2)CSC[C@@H](C(N)=O)NC(=O)[C@H](CC(C)C)NC(=O)[C@H](CC(C)C)NC(=O)C2(CCOCC2)NC1=O
B5: Ac-Asp-Trp-5Clw-Hyp-Glu-leu-[Cys(mli)-Thp-Leu-Ile-Hcy]-NH2 (peptide)
peptide: Ac-DW[Trp(5-Cl)][Hyp]E[dL]C[Thp]LI[hCys]-NH2
modifications: linker 7-11 via mli
B6: Ac-Asp-Egp-5Clw-Hyp-Glu-leu-[Cys(2Lut)-Thp-Leu-Ile-Cys]-NH2 (peptide)
peptide: Ac-D[Phe(2,3-Cl2)][Trp(5-Cl)][Hyp]E[dL]C[Thp]LIC-NH2
modifications: linker 7-11 via Pyridine(2,6-diCH2)
B7: Ac-Asp-Trp-5Clw-Hyp-Glu-leu-[Cys(2Lut)-Thp-Ile-Ile-Cys]-NH2 (peptide)
peptide: Ac-DW[Trp(5-Cl)][Hyp]E[dL]C[Thp]IIC-NH2
modifications: linker 7-11 via Pyridine(2,6-diCH2)
SMILES: CC[C@H](C)[C@@H]1NC(=O)[C@H]([C@@H](C)CC)NC(=O)C2(CCOCC2)NC(=O)[C@@H](NC(=O)[C@@H](CC(C)C)NC(=O)[C@H](CCC(=O)O)NC(=O)[C@@H]2C[C@@H](O)CN2C(=O)[C@H](Cc2c[nH]c3ccc(Cl)cc23)NC(=O)[C@H](Cc2c[nH]c3ccccc23)NC(=O)[C@H](CC(=O)O)NC(C)=O)CSCc2cccc(n2)CSC[C@@H](C(N)=O)NC1=O
B8: Ac-Asp-Trp-5Clw-Tap-Glu-leu-[Cys(2Lut)-Thp-Leu-Ile-Cys]-NH2 (peptide)
peptide: Ac-DW[Trp(5-Cl)][Pro(trans-4-NH2)]E[dL]C[Thp]LIC-NH2
modifications: linker 7-11 via 2Lut″
B9: AGLU-Glutar-Asp-Trp-5Clw-Tap-Glu-leu-[Cys(2Lut)-Apc(DOTAM)-Leu-Ile-Cys]-APAc-glu(AGLU)-NH2 (peptide)
peptide: {AGLU-Glutaryl}-DW[Trp(5-Cl)][Pro(trans-4-NH2)]E[dL]C[Api](DO3AM)LIC-{APAc-dE(AGLU)-NH2}
modifications: linker 7-11 via Pyridine(2,6-diCH2)
B10: Ac-Asp-Phe-5Clw-Hyp-Glu-leu-[Cys(2Lut)-Thp-Leu-Ile-Cys]-NH2 (peptide)
peptide: Ac-DF[Trp(5-Cl)][Hyp]E[dL]C[Thp]LIC-NH2
modifications: linker 7-11 via Pyridine(2,6-diCH2)
B11: Ac-Asp-Trp-7Fw-Hyp-Glu-leu-[Cys(2Lut)-Thp-Leu-Ile-Cys]-NH2 (peptide)
peptide: Ac-DW[Trp(7-F)][Hyp]E[dL]C[Thp]LIC-NH2
modifications: linker 7-11 via 2Lut″
B12: Ac-Asp-Trp-5Clw-Hyp-Glu-leu-[Cys(2Lut)-Thp-Ser-Ile-Cys]-NH2 (peptide)
peptide: Ac-DW[Trp(5-Cl)][Hyp]E[dL]C[Thp]SIC-NH2
modifications: linker 7-11 via Pyridine(2,6-diCH2)
SMILES: CC[C@H](C)[C@@H]1NC(=O)[C@H](CO)NC(=O)C2(CCOCC2)NC(=O)[C@@H](NC(=O)[C@@H](CC(C)C)NC(=O)[C@H](CCC(=O)O)NC(=O)[C@@H]2C[C@@H](O)CN2C(=O)[C@H](Cc2c[nH]c3ccc(Cl)cc23)NC(=O)[C@H](Cc2c[nH]c3ccccc23)NC(=O)[C@H](CC(=O)O)NC(C)=O)CSCc2cccc(n2)CSC[C@@H](C(N)=O)NC1=O
B13: Ac-Asp-Trp-5Clw-Hyp-Glu-leu-[Cys(2Lut)-Thp-Trp-Ile-Cys]-NH2 (peptide)
peptide: Ac-DW[Trp(5-Cl)][Hyp]E[dL]C[Thp]WIC-NH2
modifications: linker 7-11 via Pyridine(2,6-diCH2)
SMILES: CC[C@H](C)[C@@H]1NC(=O)[C@H](Cc2c[nH]c3ccccc23)NC(=O)C2(CCOCC2)NC(=O)[C@@H](NC(=O)[C@@H](CC(C)C)NC(=O)[C@H](CCC(=O)O)NC(=O)[C@@H]2C[C@@H](O)CN2C(=O)[C@H](Cc2c[nH]c3ccc(Cl)cc23)NC(=O)[C@H](Cc2c[nH]c3ccccc23)NC(=O)[C@H](CC(=O)O)NC(C)=O)CSCc2cccc(n2)CSC[C@@H](C(N)=O)NC1=O
B14: Ac-Asp-Trp-5Clw-Hyp-Glu-leu-[Cys(mli)-Thp-Leu-Ile-Cys]-NH2 (peptide)
peptide: Ac-DW[Trp(5-Cl)][Hyp]E[dL]C[Thp]LIC-NH2
modifications: linker 7-11 via mli
B15: DOTA-Ttds-Asp-Trp-5Clw-Pro-Glu-leu-[Dap(3MeBz)-Aib-Leu-Ile-AET] (peptide)
peptide: {DOTA-Ttds}-DW[Trp(5-Cl)]PE[dL][Dap][Aib]LI[Cysteamide]
modifications: linker (positions not given here) via 3‑methylbenzoyl; not fully specified (bridges); printed as DOTA-Ttds-Asp-Trp-5Clw-Pro-Glu-leu-[Dap(3MeBz)-Aib-Leu-Ile-AET]
B16: Ac-Asp-Trp-5Clw-Hyp-Glu-leu-[Cys(2Lut)-Thp-Arg-Ile-Cys]-NH2 (peptide)
peptide: Ac-DW[Trp(5-Cl)][Hyp]E[dL]C[Thp]RIC-NH2
modifications: linker 7-11 via Pyridine(2,6-diCH2)
SMILES: CC[C@H](C)[C@@H]1NC(=O)[C@H](CCCNC(=N)N)NC(=O)C2(CCOCC2)NC(=O)[C@@H](NC(=O)[C@@H](CC(C)C)NC(=O)[C@H](CCC(=O)O)NC(=O)[C@@H]2C[C@@H](O)CN2C(=O)[C@H](Cc2c[nH]c3ccc(Cl)cc23)NC(=O)[C@H](Cc2c[nH]c3ccccc23)NC(=O)[C@H](CC(=O)O)NC(C)=O)CSCc2cccc(n2)CSC[C@@H](C(N)=O)NC1=O

Molecular target: human Gastric Inhibitory Peptide Receptor (GIPR) (human) (UniProt P48546)
Test: FACS competition vs biotinylated GIP-057 on CHO-K1-hGIPR cells; category A: pIC50 >8.0

Chain of human Gastric Inhibitory Peptide Receptor (GIPR) (human) (P48546 22-466 limits assumed): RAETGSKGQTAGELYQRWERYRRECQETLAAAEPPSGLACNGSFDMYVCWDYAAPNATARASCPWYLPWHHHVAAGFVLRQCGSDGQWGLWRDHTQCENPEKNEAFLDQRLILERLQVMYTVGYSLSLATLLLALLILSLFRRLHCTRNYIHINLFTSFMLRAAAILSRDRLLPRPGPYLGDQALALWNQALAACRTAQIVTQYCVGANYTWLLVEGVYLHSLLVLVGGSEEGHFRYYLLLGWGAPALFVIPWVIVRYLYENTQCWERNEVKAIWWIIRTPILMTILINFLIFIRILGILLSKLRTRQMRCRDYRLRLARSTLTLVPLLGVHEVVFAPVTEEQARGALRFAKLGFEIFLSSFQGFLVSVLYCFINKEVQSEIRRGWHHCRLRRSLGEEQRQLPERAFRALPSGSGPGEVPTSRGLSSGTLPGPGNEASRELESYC

pIC50, > 8 pic50:
B1
B2
B3
B4
B5
B6
B7
B8
B9
B10
B11
B12
B13
B14
B15
B16
